According to a protein production outcome set (Wang et al. 2014):

Assay: label from the status in PepcDB records

Sequence	protein production
MKDLYQKFIYLIPSIIIFLITLSVTLKYSWPIGWDIFYHIHLSKVYMANGLTFFDPIYNAPGTIINYPPVFHLVILVLGYVLRMDLFDVARLMQPFLAALVALSVTVVASRLYEDKYVGIFAGLILFSGSIAMRLGSSLPENMALIFLPLSIFFFYEFFKDDKIIASFISGCLTGLVALIHPAATFCLVFAITFITAGLVITEFYFERDTGVIKRALKGYAILIGTAGLIASVWWLPAFYFKSLGHGGVATSLSVSRSLSILKYPDALGYFVLVLAVAGIIPAIRRFELRDRLILLWIISMFILSKSYYFGINVITYRVLIYIMIPLTILASSGLISVVEAIKNKNKDIARILLIALFIFAVFQAFNNLSSSKVADYGAMTAYGRINIAPPTDSEFELAKWFNSQNEDGKISLSNYFTGGFVMAYTNRPVDSLLYEKSEIPSRDELTEREISYLVFDKRLKASGDFKFNASSSFLFYNPNRINISDLEYPYLQKIYENQDFVVYRVL	failed
LRESKRFIEQVISHSPQLLYIFEPTTGSNIYLNGQSVDILGYTPEEIKARGVKFFLDVLHPDDLYLLERNLNYWQNAADGEVLTTEWRMKHKNGSWRWLRSRDVVFARDENHFPCKVLGTTQDITDSKLAELE	failed
MARRDISGAVDFAYLEGFAAGDFAVVDEVLALFREQAALWAPMLDPTHPGWKDAVHTVKGAARGVGAFNLGEVCERCEAGQESLEGVRTALDAALLDIAAYAHEQALRSLKG	not failed
QIKIRKATKEDWEKIYQLYNSLSDEDLYLRFFHLYRITEEDAKKIASNEDHVTFLAEVDGKVVGEASLHKDGEFSLVVHRNYRTLGIGTLLVKTLIEEAKKSGLSTVKFYTLPENTPMIKIGRKLGFKMRFYEDEVYGEMRL	not failed
DYIEGVIADISDVYDELRLRKQAEVALQASEAELRSLFSAIPDPLCVVTAQGRVIETVAGNPRQLYSSVEEKVGKTLHQIFEEEQADKFMGYIQQVLRTQQVLTVEYSLQIDGRETWFSARIAPIRHE	failed
MIGDGIENSPLLTDLAFPYRLLGAGKESRECLFLLHGSGVDETTLVPLARRIAPTATLVAARGRIPQEDGFRWFERIDPTRFEQKSILAETAAFAAFTNEAAKRHGLNLDHATFLGYSNGANLVSSLMLLHPGIVRLAALLRPMPVLDHVPATDLAGIRTLIIAGAADETYGPFVPALVTLLSRHGAEVDARIIPSGHDIGDPDAAIVRQWLAGPIAIAQAD	not failed
MSNPNEDSPMILQRIFALALLAMCAALAVMAWPYQAAFSYEPVGPRAYPLLVLGLMGLGLLYLVFRPTPIVRKDDEPELDRETLIKITACVGLLIVFAATFEALGFILSAILVGLPMARLYGGRWLQSAIVVAGMSIFLYWLFDRVMDVPLPLGLLSVLEN	failed
MAYGDKDEVLSVDVGSNAKVMKHLDGDDAMKKAQVRGRSGQEFSKETTKMMMKKTTKKETNVEEEDDLVAYTADYWKPRHHPPKNN	failed
GNQSTSSKGSDTKKEQITVKHQLDKNGTKVPKNPKKVVVFDFGSLDTLDKLGLDDIVAGLPKQVLPKYLSKFKDDKYADVGSLKEPDFDKVAELDPDLIIISARQSESYKEFSKIAPTIYLGVDTAKYMESFKSDAETIGKIFDKEDKVKDELANIDHSIADVKKTAEKLNKNGLVIMANDGKISAFGPKSRYGLIHDVFGVAPADQNIKASTHGQSVSYEYISKTNPDYLFVIDRGTAIGETSSTKQVVENDYVKNVNAVKNGHVIYLDSATWYLSGGGLESMTQMIKEVKDGLEK	not failed
MALQSSVRAFKKPPRPLVDEVRFLRSWIEKPLHMGAVMPSGKLLARTMARYVDIQSDGPVIELGPGTGAITNALVEHGVDQKRLVLLEFDPGFCALLRERFPLAKVVQGDAYRLRDSLWDALEIPATAVVSGLPLVTKPMLTRMKLIRDAFTLLEPGAPFVQFTYSVAPPIPKSLPGVSTEGSERIWMNVPPARVWVYRKRLEHHHHHH	failed
HEHPTSAGGDGGAGTGAVGTHDGSAAAAAAAAALPSISGARGHAGPEGGHDNDMGGMDASGGGGGGGYGRLPGLAAQSSMASVDGDEASLPPIANLSLGKANMTGSTVGGAAHASTRRSTLNTYYEPGAGGGGGTGGAGGGGGGAGPGPAGYGKVAKAAAVGGAGSVAGGGGVVGGAGVGGGGAVGSGTVGRRQSVGVVVGKYGSVNKQASQGHGGGGPGVAGAAGMAVTGGHAGGGVGGGGGGAVGVGGVGVNKYKANVGKTNSKYISPYSLRQLAG	failed
MTTDKQTSINLALSTINGKWKLSLMDELFQGTKRNGELMRALDGITQRVLTDRLREMEKDGLVHRESFNELPPRVEYTLTPEGYALYDALSSLCHWGETFAQKKARLNK	not failed
MSARLDAQIAFLKQADRLKSVERANVLLDLSRPENSAEHSWHLALWALVLSPFAAPDVDVDRAIRMLLLHDLVEIETGDHPIHEVTDWQAVERAERAAARKLFGLLPPDQAADFHTLWTEFDADETADARYAKMLDRCQPMFQVLCADTPRPDHVEVVRENLSSGRAAYLAEAFPEAHAHARALLERHPPVTGGFGDRLEFLAEADRLKTVLRASRLMDDSRFENSAEHSWHIMLYAWVLGEYAAAPVDIDRVLRMLLLHDLVEIDAGDNPIHGNVDHAAQEALEAAAAERLFGLLPPDQGAGLRAIWQEFETAQSADALFGKAVDRVQTPIANLENGGGSWVTYDVSLQQLVARVGTPVSRGAPGLWDWLFPQLSDCFTRLGLRLLEHHHHHH	not failed
MYFTEFLTVALIHLLAVASPGPDFAVVVRESVTHGRRAGTWTALGVGCAIFLHVGYSLLGIGLIVSQSIVLFNALKWLAAAYLLYIGYKALRAQPAKPAADDLHKEAGVRTARGAFTSGFVTNGLNPKATLFFLSLFTVVINPHTPLAIQAGYGVYLAVATAVWFCLVAMLFSQQRVRAGFARMGHWFDRTMGAVLIAIGVKLAFTEMH	failed
MITLQKAEASDLEKIIAIQRASFKAVYEKYHDQYDPYVEEVEQIRWKLVERPDCFYHFVLVDETIVGFLRLVIKDEEKRAWLGTAAILPQYQGQGYGSAAMALLEKTYPKLTKWDLCTIAQEKLMVSFYEKCGYHSTHTEPEQEGMDMVYMTKKIE	failed
MHARDVMVSPVVTVGPNATVRQVAQILLERRISAVPVVDADNKVLGIVSEGDLLHRAESGTERSPSWWLRLLTGDAQLATDYVKSHSIKVQDVMTQEVATAAPETPLHEIAMLLEERQIKRVPIVNKEGQLVGIVSRANLLQTIASARPKLEISLPDSVIRKRFFEELRKQPWAHTFNVNATVQNGVVDIWGFAPSVAERTAIRVAAEAIPGVATVNDHLLETPAFVY	failed
MRTVDVFHPQAASNSAAVHASPQTTVAFSPDGTHYASAGYDGRVVLWDRSGTSPRWVGRHSRLVNGVRFSPSGRLLASGSADKTCRIWEVATGRQVQLLARQPDDLNALAWLDENRLVTVSQDGTGRIWDIRTGVLQEGVIFHADHCMSVDAAPTGVLASCGEDATIRLWDTDGSLLRDLPQAGHAEMCRWSPDGTLLAASCDDGFVHIVRTDGELVTKVGPYTAAVKSVAWSQDGSRIVIGAYDSTIALWDIADCRPLVRWYGAHLWPRAVDWSADGRTVVAGTFSARPAVIDVPEIPADALPDEVREITLEASVPTHGVNHVSAAGEVLAAGGDNGTIRVWSHRGATATEVPVGNGSLVNTVAVSAELPGLVAYGSFSGRVGVADAVTGRDVAAVQREHPVNRAAWSPDGRRLAVADYEGGLDLYAWTGRELVPGVHYAGHDGAIKDVSWVDADRLVTYSTDRRAHLITTEGTLIRSFGGHGELINGGSVTTVAGRALLATVSRDRTSRIYDLETGELLQVLVGHDESAKCAAWHPGGEPLLVTGSYDFTGRLWVLDPKTLAPLHQHVLEGHGSAVSAVCWLGDDAVTASWDSKVFTWTPDADPARPPAAAEPATDWRVREGSR	failed
MPKPLRCITIAFTDLPNEYKIVLGYLTYHSGRLFNQALYSIKTKQAKVNTYDLYNKLKDNSLHLKNLQSRCAQIVLDELVRAFKNWFEFLHNPEKFKGQEVKPPKFRPKNKPHRTITYDQTGFKVVGTKIRLSLSKALRQWLKEKHGIELKYLWLDTGLELDERLIKNIQIVPKANAKEFELHIIYEKPQNGEKLLKQDKVMVLDPNSSNFFAIVIEGIPQPYIIDGNGLKSLLRKYLKKIASLQSRLEGAKKKGFLTHFLEERISRLWLKVKRLLKHYAHTISNLILELALKYGVRKIYIGDAARNKNKESKLSSVADQIWSLLPHGKVKEYLEYKAKEYGIEVEYISEAYTSGVDSSVEGAVNKETYTPEARVKRGLFRTRLLGFLNADVNACRNLLKKLGKFDLISGILRPIRLRVFFKLRESSSAIPLYGGIGRSRGGVNLPVVVRHSKEGVNPPEAPHL	failed
